Measured values published in publication PMC3219604.

Test system: OrfAB-GFP GMF101 V179L ((insertion sequence IS2))
Test: EMSA
Settings: panel (50- or 87-mer) not stated in material; 20 mM Tris-Cl pH 8.0, 1 mM EDTA, 5 ug/mL calf thymus DNA, 10 nM DNA, 0.11-0.13 uM protein, 30 min at 20 C; gels at 4 C

GGATCCTTAAGTGATAACAGATGTCTGGAAATATAGGGGCAAATCCAGCG (double strand) [IRR 50-mer]
binding signal (binding score (0-5)): 3
